{
  "source": "patent US20220403174A1",
  "about": "“METHOD FOR PREPARING COLORANT HAVING TARGET COLOR AND COLORANT” (Fudan University, priority 2021, published 2022)",
  "test": "stability of the structural color on a baked biscuit at high temperature",
  "assay_type": "physicochemical",
  "settings": "130-150° C.",
  "procedure": "At block 902, a predetermined solution mixed with the submicron particles prepared from the predetermined material and the cuttlefish juice submicron particles is applied to a target object. The target object, for example, is food such as, but not limited to, various pastries and candies. For example, a mixture solution of the TiO2 submicron particles and cuttlefish juice submicron particles are added dropwise onto a surface of a biscuit.\nAt block 904, the target object is baked or frozen to evaporate or sublimate the predetermined solution such that the submicron particles prepared from the predetermined material and the cuttlefish juice submicron particles can be self-assembled into the amorphous photonic crystal structure on the target object, where the baking temperature is less than or equal to 250° C.\nFor example, when baked, the biscuit having drops of the mixture solution added onto the surface is dried with the increasing baking temperature. In the case, the submicron particles prepared from the predetermined material and the cuttlefish juice submicron particles are self-assembled to generate the structural color of the amorphous photonic crystal structure. The structural color is stable in the baked state at a high temperature (130-150° C.), and the legacy phycocyanin will fade at such high temperature. […]",
  "data": [
    {"substance": "phycocyanin", "values": [
      {"measurement": "color stability in the baked state", "result": "will fade"}
    ]}
  ]
}
